Laboratory results published in paper PMC8111768.

Legend:
[1] = target: VIC16 REFORMab EFTEA (G236A/S267E/H268F/S324T/I332E) (mouse | human); assay: SPR
[2] = target: VIC16 REFORMab SDIEALGA (G236A/S239D/A330L/I332E) (mouse | human); assay: SPR

recombinant human FcγR3B, sequence (O75015 17-200): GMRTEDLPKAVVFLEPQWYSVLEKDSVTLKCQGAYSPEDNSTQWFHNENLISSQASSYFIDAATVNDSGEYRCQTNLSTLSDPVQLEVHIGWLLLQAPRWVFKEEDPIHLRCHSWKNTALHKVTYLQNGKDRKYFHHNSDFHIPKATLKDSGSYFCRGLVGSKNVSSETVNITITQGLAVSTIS

In the case of “recombinant human FcγR3B (from UniProt O75015 17-200) (receptor)”, the Kd [1] is reported as 475 µM and the Kd [2] is reported as 3.2 µM.
